Data on two molecules can be found in patent publication US20110263454A1, “Methods of Identifying Functional Characteristics of Promoters, Transcription Modifying Proteins and Transcription Modulating Agents” (Salk Institute for Biological Studies, priority 2008, published 2011).

One test concerns hCYP3A4 promoter. Nature of the test: NHR-promoter luciferase screen, hCYP3A4 promoter. Type of test: cell-based, human. To be noted: for Luc. act., normalized to lacZ / Normalized Luc. act., normalized to control: CYP3A4 promoter, HR/ligand component; for hCYP3A4 promoter reporter activity: transcription factor +/- ligand, control = 1.00. The method, boiled down:
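Luciferase reporter read-out after co-expression in CV-1 cells of V5H6-tagged receptor (alone or with RXR), the promoter construct and LacZ. Values are luciferase/LacZ relative to a control lacking NHR or ligand; orphan receptors tested ligand-free.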

The next test has as its system mUCP2 promoter. The test is described as follows: NHR-promoter luciferase screen, mUCP2 promoter. Type of test: cell-based, mouse. The note with it: for Luc. act., normalized to lacZ / Normalized Luc. act., normalized to control: mUCP2 promoter reporter, co-transfected HR, with or without its ligand; for Normalized Luc. act., normalized to control: relative to control; for luciferase activity normalized to lacZ activity and to a control, mUCP2: mUCP2 promoter-luciferase, CV-1 cells, NHR +/- ligand, control = 1.00. The method, boiled down:
(§1)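 CV-1 cells were co-transfected with 50 ng NHR (homodimer or NHR/RXR heterodimer), 100 ng promoter-luciferase construct and 50 ng LacZ. Luciferase was normalized to LacZ and to a no-NHR/no-ligand control.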

In another test the test system is mPOMC promoter. The test is described as follows: NHR-promoter luciferase screen, mPOMC promoter. To be noted: for Results of assays of transcription factor (+/- ligand) with mPOMC: Table 6d, luciferase activity relative to control (control = 1.00); for Luc. act., normalized to lacZ / Normalized Luc. act., normalized to control: mPOMC promoter, HR component with or without ligand; for Normalized Luc. act., normalized to control: relative to control. The test is classed as cell-based, mouse. The method, boiled down:
as §1

Another test has as its system mLeptin promoter. The test is described as follows: NHR-promoter luciferase screen, mLeptin promoter. The test is classed as cell-based, mouse. To be noted: for Luc. act., normalized to lacZ / Normalized Luc. act., normalized to control: Table 7, mLeptin; for Results of assays of transcription factor (+/- ligand) with mLeptin: Table 6d, luciferase activity relative to control (control = 1.00). The method, boiled down:
as §1

For another test, the system named is hIRF7 promoter. Nature of the test: NHR-promoter luciferase screen, hIRF7 promoter. Type of test: cell-based, human. The note with it: for Normalized Luc. act., normalized to control / Luc. act., normalized to lacZ: IRF7 promoter reporter; for Normalized Luc. act., normalized to control: HR without or with its ligand, relative to control; for Luc. act., normalized to lacZ: hormone receptor (HR) without or with its ligand; for hIRF7 promoter reporter activity: transcription factor +/- ligand, control = 1.00. The method, boiled down:
as §1

The test system of another test is mCAR promoter. Nature of the test: NHR-promoter luciferase screen, mCAR promoter. Type of test: cell-based, mouse. To be noted: for luciferase activity normalized to lacZ activity and to a control, mCAR: mCAR promoter-luciferase, CV-1 cells, NHR +/- ligand, control = 1.00; for Luc. act., normalized to lacZ / Normalized Luc. act., normalized to control: mCAR promoter, HR/ligand component. An outline of the steps:
as §1

B1: CAR: Constitutive Androstane Receptor (NR1I3), cDNA driver (protein, UniProt Q14994 1-352, looked up)
Nuclear receptor subfamily 1 …: MASREDELRNCVVCGDQATGYHFNALTCEGCKGFFRRTVSKSIGPTCPFAGSCEVSKTQRRHCPACRLQKCLDAGMRKDMILSAEALALRRAKQAQRRAQQTPVQLSKEQEELIRTLLGAHTRHMGTMFEQFVQFRPPAHLFIHHQPLPTLAPVLPLVTHFADINTFMVLQVIKFTKDLPVFRSLPIEDQISLLKGAAVEICHIVLNTTFCLQTQNFLCGPLRYTIEDGARVSPTVGFQVEFLELLFHFHGTLRKLQLQEPEYVLLAAMALFSPDRPGVTQRDEIDQLQEEMALTLQSYIKGQQRRPRDRFLYAKLLGLLAELRSINEAYGYQIQHIQGLSAMMPLLQEICS
In the case of B1, in the test on hCYP3A4 promoter, the “Luc. act., normalized to lacZ” value is listed as 3.1; the “Normalized Luc. act., normalized to control” value came to 0.7; the “hCYP3A4 promoter reporter activity” value is 0.70. Besides, in the test with mUCP2 promoter, the “Luc. act., normalized to lacZ” value is 151.6; the “Normalized Luc. act., normalized to control” value was 1.4; the “luciferase activity normalized to lacZ activity and to a control, mUCP2” value is listed as 1.38. Moreover, in the test on mPOMC promoter, the “Results of assays of transcription factor (+/- ligand) with mPOMC” value was 0.92; the “Luc. act., normalized to lacZ” value was determined as 63.8; the “Normalized Luc. act., normalized to control” value turned out to be 0.9. In the test with mLeptin promoter, the “Luc. act., normalized to lacZ” value was found to be 2.7; the “Normalized Luc. act., normalized to control” value turned out to be 0.9; the “Results of assays of transcription factor (+/- ligand) with mLeptin” value was 0.93. Moreover, in the test with hIRF7 promoter, the “Normalized Luc. act., normalized to control” value stood at 1.4; the “Luc. act., normalized to lacZ” value is listed as 37.3; the “hIRF7 promoter reporter activity” value is 1.42. In addition, in the test with mCAR promoter, the “luciferase activity normalized to lacZ activity and to a control, mCAR” value is recorded as 0.51; the “Luc. act., normalized to lacZ” value turned out to be 19.41; the “Normalized Luc. act., normalized to control” value was found to be 0.5.

B2: RXRb: Retinoic X Receptor β (NR2B2), cDNA driver (protein, UniProt P28702 1-533, looked up)
Retinoic acid receptor …: MSWAARPPFLPQRHAAGQCGPVGVRKEMHCGVASRWRRRRPWLDPAAAAAAAVAGGEQQTPEPEPGEAGRDGMGDSGRDSRSPDSSSPNPLPQGVPPPSPPGPPLPPSTAPSLGGSGAPPPPPMPPPPLGSPFPVISSSMGSPGLPPPAPPGFSGPVSSPQINSTVSLPGGGSGPPEDVKPPVLGVRGLHCPPPPGGPGAGKRLCAICGDRSSGKHYGVYSCEGCKGFFKRTIRKDLTYSCRDNKDCTVDKRQRNRCQYCRYQKCLATGMKREAVQEERQRGKDKDGDGEGAGGAPEEMPVDRILEAELAVEQKSDQGVEGPGGTGGSGSSPNDPVTNICQAADKQLFTLVEWAKRIPHFSSLPLDDQVILLRAGWNELLIASFSHRSIDVRDGILLATGLHVHRNSAHSAGVGAIFDRVLTELVSKMRDMRMDKTELGCLRAIILFNPDAKGLSNPSEVEVLREKVYASLETYCKQKYPEQQGRFAKLLLRLPALRSIGLKCLEHLFFFKLIGDTPIDTFLMEMLEAPHQLA
Turning to B2, in the test with hCYP3A4 promoter, the “Luc. act., normalized to lacZ” value was found to be 0.3; the “Normalized Luc. act., normalized to control” value came to 0.1; the “hCYP3A4 promoter reporter activity” value is reported as 0.06. For the same molecule, in the test with mUCP2 promoter, the “Luc. act., normalized to lacZ” value is reported as 87.7; the “Normalized Luc. act., normalized to control” value is given as 0.8; the “luciferase activity normalized to lacZ activity and to a control, mUCP2” value is listed as 0.80. In the test with mPOMC promoter, the “Results of assays of transcription factor (+/- ligand) with mPOMC” value was found to be 1.19; the “Luc. act., normalized to lacZ” value turned out to be 81.8; the “Normalized Luc. act., normalized to control” value was found to be 1.2. Moreover, in the test with mLeptin promoter, the “Luc. act., normalized to lacZ” value is listed as 1.5; the “Normalized Luc. act., normalized to control” value worked out at 0.5; the “Results of assays of transcription factor (+/- ligand) with mLeptin” value was 0.50. In the test on hIRF7 promoter, the “Normalized Luc. act., normalized to control” value is listed as 0.3; the “Luc. act., normalized to lacZ” value stood at 8.9; the “hIRF7 promoter reporter activity” value is listed as 0.34. Also, in the test with mCAR promoter, the “luciferase activity normalized to lacZ activity and to a control, mCAR” value is 1.27; the “Luc. act., normalized to lacZ” value worked out at 48.6; the “Normalized Luc. act., normalized to control” value is 1.3.
